Measurements published in publication PMC11098746 (2024).

Tests used:
Experiment in all cases: AVEXIS screen signal:noise (double-corrected)
ADP292 = target: T1, ADP292
T1 chain: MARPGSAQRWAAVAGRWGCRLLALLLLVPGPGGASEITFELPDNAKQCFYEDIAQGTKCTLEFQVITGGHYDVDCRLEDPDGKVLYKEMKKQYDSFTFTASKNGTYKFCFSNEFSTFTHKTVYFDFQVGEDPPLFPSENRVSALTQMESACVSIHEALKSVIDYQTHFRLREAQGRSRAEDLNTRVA

ADP261 = target: T2, ADP261
T2 chain: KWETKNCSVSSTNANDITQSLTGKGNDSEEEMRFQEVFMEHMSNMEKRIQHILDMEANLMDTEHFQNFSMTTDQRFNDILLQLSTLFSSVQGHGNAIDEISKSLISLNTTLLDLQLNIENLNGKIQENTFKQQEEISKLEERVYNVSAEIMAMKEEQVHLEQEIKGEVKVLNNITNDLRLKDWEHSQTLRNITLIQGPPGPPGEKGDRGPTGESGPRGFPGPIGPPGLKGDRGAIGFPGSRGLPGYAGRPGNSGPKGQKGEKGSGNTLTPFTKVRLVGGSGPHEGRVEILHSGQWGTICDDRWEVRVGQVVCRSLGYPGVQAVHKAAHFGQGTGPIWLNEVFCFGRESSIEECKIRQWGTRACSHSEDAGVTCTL

ADP381 = target: T3, ADP381
T3 chain: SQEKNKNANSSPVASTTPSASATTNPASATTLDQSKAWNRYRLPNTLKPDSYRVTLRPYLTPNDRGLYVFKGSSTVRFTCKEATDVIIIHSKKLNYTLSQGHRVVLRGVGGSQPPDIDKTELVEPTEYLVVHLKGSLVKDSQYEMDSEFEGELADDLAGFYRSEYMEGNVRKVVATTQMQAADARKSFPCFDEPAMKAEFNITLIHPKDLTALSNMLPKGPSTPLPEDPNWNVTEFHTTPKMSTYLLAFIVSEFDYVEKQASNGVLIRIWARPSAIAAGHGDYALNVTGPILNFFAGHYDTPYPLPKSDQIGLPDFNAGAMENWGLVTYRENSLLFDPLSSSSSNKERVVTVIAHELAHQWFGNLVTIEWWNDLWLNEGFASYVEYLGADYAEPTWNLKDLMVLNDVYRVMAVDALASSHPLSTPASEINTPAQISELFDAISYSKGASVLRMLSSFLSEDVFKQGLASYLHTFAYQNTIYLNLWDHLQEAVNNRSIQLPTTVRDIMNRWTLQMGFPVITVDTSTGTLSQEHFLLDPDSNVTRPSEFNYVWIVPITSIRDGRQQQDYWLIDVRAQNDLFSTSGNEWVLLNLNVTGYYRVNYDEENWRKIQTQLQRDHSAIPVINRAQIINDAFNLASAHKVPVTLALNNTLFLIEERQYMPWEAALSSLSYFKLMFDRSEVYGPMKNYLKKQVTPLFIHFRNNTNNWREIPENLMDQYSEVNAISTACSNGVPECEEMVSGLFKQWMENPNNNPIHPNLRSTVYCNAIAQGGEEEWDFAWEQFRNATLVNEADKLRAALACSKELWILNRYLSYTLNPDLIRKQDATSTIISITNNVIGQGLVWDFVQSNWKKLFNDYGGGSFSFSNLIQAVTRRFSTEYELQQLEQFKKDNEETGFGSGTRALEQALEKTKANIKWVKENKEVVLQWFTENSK

ADP379 = target: T4, ADP379
T4 chain: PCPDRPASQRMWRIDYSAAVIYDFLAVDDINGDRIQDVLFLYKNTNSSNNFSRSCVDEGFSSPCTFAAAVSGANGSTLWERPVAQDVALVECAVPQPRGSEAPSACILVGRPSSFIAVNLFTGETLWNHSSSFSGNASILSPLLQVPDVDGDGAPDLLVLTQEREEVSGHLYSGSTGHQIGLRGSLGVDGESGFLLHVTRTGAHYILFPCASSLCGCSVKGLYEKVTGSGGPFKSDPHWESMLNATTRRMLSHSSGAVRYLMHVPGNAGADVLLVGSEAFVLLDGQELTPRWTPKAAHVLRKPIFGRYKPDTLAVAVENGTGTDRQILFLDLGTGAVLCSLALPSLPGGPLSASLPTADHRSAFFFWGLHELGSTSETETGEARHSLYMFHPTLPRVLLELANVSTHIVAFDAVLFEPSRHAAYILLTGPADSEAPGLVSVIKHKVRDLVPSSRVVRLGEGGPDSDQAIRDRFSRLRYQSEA

ADP377 = target: T5, ADP377
T5 chain: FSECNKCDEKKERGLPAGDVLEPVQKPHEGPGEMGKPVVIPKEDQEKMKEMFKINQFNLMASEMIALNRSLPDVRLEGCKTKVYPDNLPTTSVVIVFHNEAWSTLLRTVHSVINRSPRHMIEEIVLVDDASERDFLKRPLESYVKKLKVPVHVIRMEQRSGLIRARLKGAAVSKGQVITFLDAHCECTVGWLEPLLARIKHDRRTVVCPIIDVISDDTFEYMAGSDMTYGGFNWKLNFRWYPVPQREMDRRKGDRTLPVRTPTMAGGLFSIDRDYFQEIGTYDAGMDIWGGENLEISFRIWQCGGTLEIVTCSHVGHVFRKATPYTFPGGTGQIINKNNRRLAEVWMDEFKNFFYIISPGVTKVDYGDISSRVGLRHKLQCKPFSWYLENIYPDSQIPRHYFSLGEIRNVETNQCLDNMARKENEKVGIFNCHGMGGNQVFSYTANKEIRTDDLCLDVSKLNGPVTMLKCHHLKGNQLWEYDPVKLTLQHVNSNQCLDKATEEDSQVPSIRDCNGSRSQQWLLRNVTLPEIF

ADP123 = target: ADP123

B1: ADP237 (protein)
chain: TKKKVSVSEINFDSAVDDVQWCGNNHMTVLVKTVKGRLYRSSDGGKIWTNIAGNLADKENNKADPSSNHMNEMTTVDLIMVNSVNKNIVLIIGNQKNHYISEDSGETFRLLNYQNKINFWQFHSTKTHWALVSSWTEACYSNDDNSGECMQTLSLTKDLGRTFQLIDIYVVQFNWGDKESHLEDTIYYTRHKNRNGHQQRFSGWSKDVDFVATHNFGKSVDVLVKQGNKFLISNGYIFVAKLNDVIKQTVNMMVSTDGGKTFNKANLPENIHEKSYTVLDTSEGSIMLHVNHGTSSEKINTGNVYISDASGLNYALSLPNNIRTSSGECEFDRVLSLDGVYIANFLDVNNEIKDEDLRFQNFKSAIEEDIAPFETNTEKRKKQYNKGKNEDAVRTVISFNKGGEWSYLKAPKVDSRGNKYECGDNCYLHLHGITNYHQYAPFYSIENAVGIIMGTGNVGSHLRYESDEVNTFLSRDGGVTWIEAHKGPYIYEYGDYGGLIVMADDLRKTNQIVFSWNEGQSWFDFELGQFSIDVDNIVAEPNSASVEFLVYGTRNDVGVLYHLDFNALGQPLCKGLWAADSVSSDYETWSPTSGNFNDKCILGRKITYTRRKQTSECFNGKDLKRTVDKKPCECTPEDYECETGFTRKIGSYECKPNDPTLTIEGCTSSSYFYANAYRKVPGDICVNGWVPEKVPVPCPSYAPFNKAAK
modifications: bait human Fc-tagged dimer; N-glycosylation sequons mutated in Plasmodium baits
- binding score (ADP292): 5.28
- binding score (ADP261): 19.5
- binding score (ADP381): 8.67
- binding score (ADP379): 16.2
- binding score (ADP377): 11.5
- binding score (ADP123): 5.84
